B1: Twist-related protein 1 (Homo sapiens), Q15672 (parent)
chain: MMQDVSSSPVSPADDSLSNSEEEPDRQQPPSGKRGGRKRRSSRRSAGGGAGPGGAAGGGVGGGDEPGSPAQGKRGKKSAGCGGGGGAGGGGGSSSGGGSPQSYEELQTQRVMANVRERQRTQSLNEAFAALRKIIPTLPSDKLSKIQTLKLAARYIDFLYQVLQSDELDSKMASCSYVAHERLSYAFSVWRMEGAWSMSASH

Key:
TCF3, P15923-1 [1] = variants of: B1; details: with TCF3, P15923-1
TCF3, P15923-1 [2] = variants of: B1; details: with TCF3, P15923-1; remark: listed apart in the source

Sequence of TCF3, P15923-1 (P15923 whole entry): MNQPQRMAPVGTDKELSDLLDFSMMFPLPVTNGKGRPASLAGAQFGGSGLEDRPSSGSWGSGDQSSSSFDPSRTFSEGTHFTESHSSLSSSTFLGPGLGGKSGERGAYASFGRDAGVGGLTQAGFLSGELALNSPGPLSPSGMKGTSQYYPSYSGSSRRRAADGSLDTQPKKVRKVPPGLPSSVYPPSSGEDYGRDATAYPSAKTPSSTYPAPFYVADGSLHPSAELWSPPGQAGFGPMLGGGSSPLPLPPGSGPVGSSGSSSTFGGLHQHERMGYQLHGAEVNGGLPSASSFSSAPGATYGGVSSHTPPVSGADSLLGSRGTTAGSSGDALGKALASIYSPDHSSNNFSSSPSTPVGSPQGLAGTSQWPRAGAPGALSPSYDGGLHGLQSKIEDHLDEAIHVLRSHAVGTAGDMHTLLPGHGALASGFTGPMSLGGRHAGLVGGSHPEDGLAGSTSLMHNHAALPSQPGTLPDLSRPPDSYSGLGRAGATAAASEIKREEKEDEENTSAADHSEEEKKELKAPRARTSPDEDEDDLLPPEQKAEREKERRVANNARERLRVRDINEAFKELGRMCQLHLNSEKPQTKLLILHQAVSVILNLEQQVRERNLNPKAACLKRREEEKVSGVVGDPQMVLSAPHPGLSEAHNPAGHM

Variant | effect of a mutation on the interaction (TCF3, P15923-1 [1]) | effect of a mutation on the interaction (TCF3, P15923-1 [2])
MMQDVSSSPVSPADDSLSNSEEEPDRQQPPSGKRGGRKRRSSRRSAGGGAGPGGAAGGGVGGGDEPGSPAQGKRGKKSAGCGGGGGAGGGGGSSSGGGSPQSYEELQTQRVMANVRERQRTQSLNEAFPALRKIIPTLPSDKLSKIQTLKLAARYIDFLYQVLQSDELDSKMASCSYVAHERLSYAFSVWRMEGAWSMSASH [A129P] | disrupting interaction strength | decreasing interaction strength
MMQDVSSSPVSPADDSLSNSEEEPDRQQPPSGKRGGRKRRSSRRSAGGGAGPGGAAGGGVGGGDEPGSPAQGKRGKKSAGCGGGGGAGGGGGSSSGGGSPQSYEELQTQRVMANVRERQRTQSLNEAFAALRKIIPTLPSDKLSKIQTLKLAARYIDFFYQVLQSDELDSKMASCSYVAHERLSYAFSVWRMEGAWSMSASH [L159F] | disrupting interaction strength | decreasing interaction strength
MMQDVSSSPVSPADDSLSNSEEEPDRQQPPSGKRGGRKRRSSRRSAGGGAGPGGAAGGGVGGGDEPGSPAQGKRGKKSAGCGGGGGAGGGGGSSSGGGSPQSYEELQTQRVMANVRERQRTQSLNEAFAALRKIIPTLPSDKLSEIQTLKLAARYIDFLYQVLQSDELDSKMASCSYVAHERLSYAFSVWRMEGAWSMSASH [K145E] | decreasing interaction strength | with no effect
